# Measured values reported in PMC6386588 (Molecular cell, 2019).
# B1: FHH:MAPKAP1^RBD (AA279-353) (domain or fragment, UniProt Q9BPZ7 279-353, looked up)
# chain: LFVRINAAHGFSLIQVDNTKVTMKEILLKAVKRRKGSQKVSGPQYRLEKQSEPNVAVDLDSTLESQSAWEFCLVR
# modifications: RED-tris-NTA dye on the His tag (Monolith His-Tag Labeling Kit)
# Molecular target: H-Ras protein: His tagged: human wild type (MST) (human, UniProt P01112 1-189)
# Experiment: MST
# Sequence of H-Ras protein: His tagged: human wild type (MST) (P01112 whole entry): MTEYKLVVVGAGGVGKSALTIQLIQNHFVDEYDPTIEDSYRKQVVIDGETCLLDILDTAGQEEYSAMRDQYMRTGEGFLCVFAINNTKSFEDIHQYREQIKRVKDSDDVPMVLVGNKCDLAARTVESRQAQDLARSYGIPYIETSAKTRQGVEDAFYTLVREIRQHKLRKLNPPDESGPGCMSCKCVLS
binder,measurement,value
B1,binding result,binds
